Test results taken from patent US20220089784A1 (University of California, published 2022).

T1: BoNT/C1 holotoxin (Clostridium botulinum, UniProt P18640 2-1291)
T1 sequence: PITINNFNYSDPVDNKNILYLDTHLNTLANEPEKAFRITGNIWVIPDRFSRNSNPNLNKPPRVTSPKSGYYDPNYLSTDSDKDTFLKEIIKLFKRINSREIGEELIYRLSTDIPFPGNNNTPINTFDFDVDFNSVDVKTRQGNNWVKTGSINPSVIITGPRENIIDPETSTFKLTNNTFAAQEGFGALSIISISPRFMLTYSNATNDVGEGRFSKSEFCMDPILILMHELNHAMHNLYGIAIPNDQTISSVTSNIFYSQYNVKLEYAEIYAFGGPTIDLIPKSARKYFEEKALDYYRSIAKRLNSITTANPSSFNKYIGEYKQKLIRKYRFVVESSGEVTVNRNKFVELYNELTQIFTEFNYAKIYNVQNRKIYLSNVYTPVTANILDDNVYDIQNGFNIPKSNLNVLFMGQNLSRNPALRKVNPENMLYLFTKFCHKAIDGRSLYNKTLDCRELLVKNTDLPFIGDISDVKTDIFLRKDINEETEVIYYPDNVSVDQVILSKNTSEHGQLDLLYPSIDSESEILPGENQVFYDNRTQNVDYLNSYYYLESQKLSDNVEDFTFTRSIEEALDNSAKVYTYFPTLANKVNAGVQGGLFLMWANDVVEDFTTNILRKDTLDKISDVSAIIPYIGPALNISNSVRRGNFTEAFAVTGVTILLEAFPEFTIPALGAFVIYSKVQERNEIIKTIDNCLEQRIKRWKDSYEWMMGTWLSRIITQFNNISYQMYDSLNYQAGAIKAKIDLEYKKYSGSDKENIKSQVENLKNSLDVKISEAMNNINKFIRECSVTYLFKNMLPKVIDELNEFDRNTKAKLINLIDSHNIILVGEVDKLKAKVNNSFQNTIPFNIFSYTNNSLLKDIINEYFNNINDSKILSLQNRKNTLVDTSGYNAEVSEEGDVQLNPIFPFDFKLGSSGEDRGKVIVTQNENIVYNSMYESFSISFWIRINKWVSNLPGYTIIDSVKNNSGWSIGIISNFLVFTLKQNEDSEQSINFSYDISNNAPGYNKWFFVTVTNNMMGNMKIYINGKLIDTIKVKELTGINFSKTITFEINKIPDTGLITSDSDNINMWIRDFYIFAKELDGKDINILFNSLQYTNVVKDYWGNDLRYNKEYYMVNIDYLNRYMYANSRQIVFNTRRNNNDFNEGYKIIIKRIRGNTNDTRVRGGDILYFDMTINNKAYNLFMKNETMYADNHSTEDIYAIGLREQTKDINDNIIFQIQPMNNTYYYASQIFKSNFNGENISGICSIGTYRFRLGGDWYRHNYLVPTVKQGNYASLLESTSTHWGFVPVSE

T2: BoNT/D (Clostridium botulinum, UniProt P19321 2-1276)
T2 sequence: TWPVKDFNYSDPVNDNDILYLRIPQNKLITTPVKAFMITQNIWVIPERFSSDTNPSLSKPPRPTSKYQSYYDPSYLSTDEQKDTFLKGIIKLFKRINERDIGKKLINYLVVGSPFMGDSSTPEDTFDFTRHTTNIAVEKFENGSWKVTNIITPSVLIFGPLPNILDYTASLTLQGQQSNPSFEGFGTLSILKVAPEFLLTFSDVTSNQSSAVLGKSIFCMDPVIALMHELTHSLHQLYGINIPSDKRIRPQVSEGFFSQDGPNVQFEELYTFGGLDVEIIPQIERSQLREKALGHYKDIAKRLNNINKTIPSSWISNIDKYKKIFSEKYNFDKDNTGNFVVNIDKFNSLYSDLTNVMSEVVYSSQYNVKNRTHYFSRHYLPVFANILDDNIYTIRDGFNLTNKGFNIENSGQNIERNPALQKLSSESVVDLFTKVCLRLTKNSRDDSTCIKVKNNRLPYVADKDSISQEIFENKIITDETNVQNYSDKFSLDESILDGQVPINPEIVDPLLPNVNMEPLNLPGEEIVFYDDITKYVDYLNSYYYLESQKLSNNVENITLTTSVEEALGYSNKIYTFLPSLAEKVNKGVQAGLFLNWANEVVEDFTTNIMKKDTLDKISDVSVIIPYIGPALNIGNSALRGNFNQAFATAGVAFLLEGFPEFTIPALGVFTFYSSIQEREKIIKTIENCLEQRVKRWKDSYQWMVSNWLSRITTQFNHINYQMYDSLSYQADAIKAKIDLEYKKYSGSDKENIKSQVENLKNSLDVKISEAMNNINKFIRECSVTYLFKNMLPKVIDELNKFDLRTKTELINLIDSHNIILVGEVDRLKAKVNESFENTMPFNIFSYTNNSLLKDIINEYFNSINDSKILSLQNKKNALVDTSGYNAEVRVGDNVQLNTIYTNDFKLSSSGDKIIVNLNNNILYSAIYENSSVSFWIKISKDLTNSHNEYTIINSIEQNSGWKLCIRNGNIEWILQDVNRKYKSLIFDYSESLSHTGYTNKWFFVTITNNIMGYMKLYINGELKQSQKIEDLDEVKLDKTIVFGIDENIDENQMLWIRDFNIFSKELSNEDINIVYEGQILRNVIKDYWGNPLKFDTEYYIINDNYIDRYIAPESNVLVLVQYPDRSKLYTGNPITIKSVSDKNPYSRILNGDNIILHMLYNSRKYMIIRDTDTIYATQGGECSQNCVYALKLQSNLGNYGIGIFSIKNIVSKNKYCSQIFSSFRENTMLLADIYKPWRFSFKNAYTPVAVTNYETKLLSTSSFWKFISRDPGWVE

B1: 4C10 scFv (scFv, V domains shown)
VH: QVQLVESGGGAVQPGESLRLSCAASGFTFSGFDMHWVRQSPGRGLEWVARISHDGSMADYADSLRGRFTISRDNPKNTLYLHMNSLRVEDTALYYCAKDRWRSGSYPAFEKWGQGTMVTVSS
VL: QSVPTQPASVSGSPGQSITISCTGTSSDVGAYNYVSWYQQHPGKAPKLMIYDVSDRPSGVSNRFSGSKSGNTASLTISGLQAEDEADYYCSSYTSSSTYVFGTGTKLTVL
notes: human
B2: 1C1 scFv (scFv, V domains shown)
VH: QVQLQESGSGLVKPSQSLSLTCAVSGGSISSGDYSWSWIRQPPGEGLEWIGYIFPRGSTYYNPSLRSRVTMSVDRSKNQFSLSLNSVTAADTAVYYCARTKMGAAEGVFDYWGQGTLVTVSS
VL: DIVMTQSPSTLSASVGDRVTITCRASQSVSTWLAWYQQKPGKAPNLLISEASNLESGVPSRFSGSGSGTEFTLTISSLQPDDFAIYYCQQYNSYVWTFGQGTKLEIK
notes: human
B3: 1C1.1 scFv (scFv, V domains shown)
VH: B2 VH
VL: EIVLTQSPSSLPASVGDRVTITCRASQSIGTYLNWYQHKPGSAPKLLINAASSLQSGVPSRFSGSGSGTDFTLTISSLQPDDFATYYCQQYNSYTWTFGQGTKVGIK
notes: human
B4: 87C1 scFv (scFv, V domains shown)
VH: QVQLQQSGGGVVQPGRSLRLSCAGSGFTLSTYGMHWVRQAPGKGLEWVAVISNDGSKEYYADSVKGRFAISRDNSKNTLSLQMNGLRAEDTAIYYCAKAIKSYSTIGGACNLWGQGTMVTVSS
VL: DIVMTQSPSFLSASVGDRVTITCRASQSISSYLNWYQQKPGKAPKLLIYAASSLQSGVPSRFSGSRSGTYFTLTISSLQPEDFATYYCQQSYITWTFGQGTRLEIK
notes: human
B5: 1C8 scFv (scFv, V domains shown)
VH: QVQLQQSGAEVKKPGASVKVSCKASAFTFNSNYIHWVRLAPGQGPEWMGIINPDGGRTTYAQKFQGRITMTTDTSTYAVYMELSSLRSEDTAVYYCARGATNIPYGMSVWGQGTTVTVSS
VL: DIVMTQSPSSLSASVGDRVTITCRASQAIRNDLGWYQQEPGKAPKLLIYAASTLQSGVPSRFSGRGSGTDFTLTISSLQPEDFATYYCLQHNSYPLTFGGGTKVDIK
notes: human
B6: 4C2 scFv (scFv, V domains shown)
VH: EVQLVQSGGNLVQPGGSLRLSCTASGFIFSNHWMQWVRQIPGKGLMWVSRINDSGRSTSYAGFVKGRFTMSRDNAKNTLFLQMNSLTAEDTGVYYCVRETWEVLGHLGYEVLDHWGLGTLVTVSS
VL: DIVMTQSPSSLSASVGDRVTITCRASQGISSYLAWYQQKPGKAPKLLIYAASTLQSGVPSRFSGSGSGTEFTLTISSLQPEDFATYYCQQLNSYPRTFGQGTKVDIK
notes: human
B7: 1C2 scFv (scFv, V domains shown)
VH: QVQLQQSGAEVRKSGASVKVSCKTSGYTFTTYYIHWVRQAPGQGLEWMGMIDPRGGSASYAQRFQGRVTMTRDTSTTTVFLALNSLESNDTAVYYCARGGLPYQQLPLWGQGTLVTVSS
VL: not shown
notes: human
B8: 8DC8 scFv (scFv, V domains shown)
VH: QVQLQQSGPGLVKPSETLSLTCTVSGGSISSAGYSWSWIRQSPGKGLECLGYIYQTGSTFYNLSLKGRVTMSLDRSKNQISLRLTSVVAADTAVYYCARVVGVYPGWFDSWGQGTLVTVSS
VL: DIVMTQSPSTLSASVGDRVTITCRASQSINIWMAWYQQKPGKAPKLLVYKASSLESGVPSRFSGSGSGTEFTLTISSLQPDDFATYYCQQYNSYGTFGKGTKVEIK
notes: human
B9: 8DC8.3 scFv (scFv, V domains shown)
VH: B8 VH
VL: DIVMTQSPSSLSASVGDRVTITCRASQSVSRWLAWYQQKPGKPPKLLIYEASSLESGVPSRFSGSGSGTDFTLTITSLQPEDFATYYCQQYENLPPSTFGGGTKLEIK
notes: human
B10: 8D2 scFv (scFv, V domains shown)
VH: QVQLVQSGAEVKKPGESLKISCKGSGYSFTSYWIGWVRQMPGKGLEWMGIIYPGDSDTRYSPSFQGQVTISADKSISTAYLQWSSLKASDTAMYYCVSYSSLDAFDIWGQGTMVTVSS
VL: EIVLTQSPSSLSASVGDRVTITCQASQDISNSLCWYQQKPGKAPKLLIYDASNLETGVPSRFSGSGSGTDFIFTISSLQPEDIATYYCQQYDNLLRVFGGGTKLEIK
notes: human
B11: 8DC3.1 scFv (scFv, V domains shown)
VH: QVQLVQSRGGLVKPGGSLRLSCAASGFTFSSHSMNWVRQAPGKGLEWVSSISSSSSYIYYADSVKGRFTISRDNSKNSLYLQLNSLRAEDTAVYYCARDQGGGSVVGTNWFDPWGQGTLVTVSS
VL: SALTQPASVSGSPGQSVTISCTGTSSDVGGYNYVSWYQQHPGKAPKLMIYDVSKRPSGVPDRFSGSKSGNTASLTISGLQAEDEADYYCCSYAGRYTYVFGTGTKVTVL
notes: human
B12: 8DC6 scFv (scFv, V domains shown)
VH: EVQMVESGGGVVQPGRSLRLSCAASGFTFTSYAMHWVRQAPGKGLEWVAMISNDESNTKYADSVKGRFTISRDNSKNTLFLQMNSLRAEDTAMYSCARGGYYTRPLAFDTWGPGTTVTVSS
VL: DVVMTQSPSSVSASVGDRVTITCRASQGISSYLAWYQQKPGKVPKLLIYAASSLQRGVPSRFSGSGSGTDFTLTISRLQPEDVATYYCQKYNSAPLTFGGGTKVEIK
notes: human
B13: 8DC15 scFv (scFv, V domains shown)
VH: QVQLQESGPGLLKPSQTLSLTCSVSGGSMITGGYYWTWVRQLPGKGLEWIGHVYYTGKTYYNPSLNGRFTIAIDTSKNQFSLNLNSVTATDTAVFYCARAIWGGWYFDLWGQGTLVTVSS
VL: DIQMTQSPSSLSASVGDRITITCRASRDIRDDLAWYQQKPGKAPKLLIYAASSLQSGVPSRFSGSGSGTEFTLTISSLQPEDFATYYCQQANSFPLTFGGGTKVDIK
notes: human

What follows are binders tested against T1, BoNT/C1 holotoxin (assay: yeast scFv FACS).

Binder	Kd
B1	390 pM
B2	500 pM
B3	150 pM
B4	2000 pM
B5	42000 pM
B6	190 pM
B7	24000 pM

Target: T1, BoNT/C1 holotoxin
Experiment: yeast scFv FACS
Remark: another data set of the same source

Binder	binding result
B8	no binding (tested: ~1 µM)
B9	no binding (tested: ~1 µM)
B10	no binding (tested: ~1 µM)
B11	no binding (tested: ~1 µM)
B12	no binding (tested: ~1 µM)

What follows are binders tested against T2, BoNT/D (assay: yeast scFv FACS).

Binder	binding result
B13	no binding (tested: ~1 µM)
B2	no binding (tested: ~1 µM)
B3	no binding (tested: ~1 µM)
B4	no binding (tested: ~1 µM)
B11	binds
B7	no binding (tested: ~1 µM)
